Consider five substances from PMC7535911.

Assay [1] deals with ubiquitin-7-amino-4-methyl coumarin (Ub-AMC) (UniProt P0CG47).
The target is the same in assay [2]. This is another data set of the same source.

Like-named read-outs stand apart in the source and are kept apart here.

Consider TYMV PRO/DUB T763A (enzyme), for which the DUB activity in vitro with Ub-AMC as substrate (Kapp, percent of WT) in assay [1] is 89 % of WT. For the substance TYMV PRO/DUB N760A/R844A (enzyme), the DUB activity in vitro with Ub-AMC as substrate (Kapp, percent of WT) in assay [2] is 344 % of WT. Regarding TYMV PRO/DUB R844A (enzyme), in assay [2], the DUB activity in vitro with Ub-AMC as substrate (Kapp, percent of WT) was 320 % of WT. Consider TYMV PRO/DUB N760A (enzyme), for which the DUB activity in vitro with Ub-AMC as substrate (Kapp, percent of WT) in assay [1] is 135 % of WT. With TYMV PRO/DUB E759A (enzyme), the DUB activity in vitro with Ub-AMC as substrate (Kapp, percent of WT) in assay [1] is 137 % of WT.
